Results on three substances are retold here after paper PMC12661054, “The CIP2A-TOPBP1 axis facilitates mitotic DNA repair via MiDAS and MMEJ” (Nature Communications, 2025).

Assay [1] concerns the target TOPBP1 BRCT0-1-2, 1-290 (UniProt Q92547). Put plainly: biotin-peptide pull-down, Coomassie SDS-PAGE. As to conditions: reference: unphosphorylated T1260 peptide; sites T1260.
For assay [2] the target is unchanged. Put plainly: fluorescence polarisation titration. To be noted: reference: pT1260 peptide, untreated; sites T1260. A general note: Fluorescence polarisation rises when a labelled molecule tumbles more slowly, as on binding a larger partner.
The target of a further assay is TOPBP1 (UniProt Q92547). The assay can be described thus: GFP-Trap co-IP, western blot. As to conditions: reference: eGFP-SLX4 wild type; sites T1260. On the technique in general: In western blotting, separated proteins are transferred to a membrane and probed.

Take “SLX4 1247-1267 (from UniProt Q8IY92) synthetic pT1260 peptide”: the “binding against the reference” value in the assay with TOPBP1 BRCT0-1-2, 1-290 [1] was “gained”.

As for “SLX4 1253-1267 (from UniProt Q8IY92) pT1260 peptide treated with lambda phosphatase”, the “binding against the reference” value in the assay with TOPBP1 BRCT0-1-2, 1-290 [2] is recorded as “lost”.

For “SLX4 (from UniProt Q8IY92) eGFP-SLX4 T1260A”, the “binding against the reference” value with TOPBP1 is given as “lost”.
